Assay results: patent US20170275666A1, “Methods for Preparing Rebaudioside I and Uses” (The Coca-Cola Company, priority 2014, published 2017)
Substitutions are numbered along the chain they refer to.

B1: UGT76G1var86: UGT76G1 variant, mutations E224A_T284L_V396F_Y397E_I407V (protein, UniProt Q6VAB4 1-458, looked up, variant E224A T284L V396F Y397E I407V)
UDP-glycosyltransferase 76G1: MENKTETTVRRRRRIILFPVPFQGHINPILQLANVLYSKGFSITIFHTNFNKPKTSNYPHFTFRFILDNDPQDERISNLPTHGPLAGMRIPIINEHGADELRRELELLMLASEEDEEVSCLITDALWYFAQSVADSLNLRRLVLMTSSLFNFHAHVSLPQFDELGYLDPDDKTRLEEQASGFPMLKVKDIKSAYSNWQILKEILGKMIKQTKASSGVIWNSFKALEESELETVIREIPAPSFLIPLPKHLTASSSSLLDHDRTVFQWLDQQPPSSVLYVSFGSLSEVDEKDFLEIARGLVDSKQSFLWVVRPGFVKGSTWVEPLPDGFLGERGRIVKWVPQQEVLAHGAIGAFWTHSGWNSTLESVCEGVPMIFSDFGLDQPLNARYMSDVLKVGFELENGWERGEVANAIRRVMVDEEGEYIRQNARVLKQKADVSLMKGGSSYESLESLVSYISSL
B2: UGT76G1var92: UGT76G1 variant, mutations K303G_S357N_V366I_V394I_I407V (protein, UniProt Q6VAB4 1-458, looked up, variant K303G S357N V366I V394I I407V)
UDP-glycosyltransferase 76G1: B1 UDP-glycosyltransferase 76G1 with A224E, L284T, K303G, S357N, V366I, V394I, F396V, E397Y
B3: UGT76G1var89: UGT76G1 variant, mutations F41L_E229A_E231A_F265L_P272A (protein, UniProt Q6VAB4 1-458, looked up, variant F41L E229A E231A F265L P272A)
UDP-glycosyltransferase 76G1: B1 UDP-glycosyltransferase 76G1 with F41L, A224E, E229A, E231A, F265L, P272A, L284T, F396V, E397Y, V407I
B4: UGT76G1var88: UGT76G1 variant, mutations A239V_T284I_V310I_Q342K_L379A (protein, UniProt Q6VAB4 1-458, looked up, variant A239V T284I V310I Q342K L379A)
UDP-glycosyltransferase 76G1: B1 UDP-glycosyltransferase 76G1 with A224E, A239V, L284I, V310I, Q342K, L379A, F396V, E397Y, V407I
B5: UGT76G1var87: UGT76G1 variant, mutations S241I_L243A_V300A_F314S_N409R (protein, UniProt Q6VAB4 1-458, looked up, variant S241I L243A V300A F314S N409R)
UDP-glycosyltransferase 76G1: B1 UDP-glycosyltransferase 76G1 with A224E, S241I, L243A, L284T, V300A, F314S, F396V, E397Y, V407I, N409R
B6: UGT76G1var90: UGT76G1 variant, mutations E231A_S241I_S274G_Y397Q_Q425E (protein, UniProt Q6VAB4 1-458, looked up, variant E231A S241I S274G Y397Q Q425E)
UDP-glycosyltransferase 76G1: B1 UDP-glycosyltransferase 76G1 with A224E, E231A, S241I, S274G, L284T, F396V, E397Q, V407I, Q425E
B7: UGT76G1var93: UGT76G1 variant, mutations I43V_Q266E_S375M_S389E_V394I (protein, UniProt Q6VAB4 1-458, looked up, variant I43V Q266E S375M S389E V394I)
UDP-glycosyltransferase 76G1: B1 UDP-glycosyltransferase 76G1 with I43V, A224E, Q266E, L284T, S375M, S389E, V394I, F396V, E397Y, V407I
B8: UGT76G1var91: UGT76G1 variant, mutations E224A_L246F_T263S_F265I_Q342K (protein, UniProt Q6VAB4 1-458, looked up, variant E224A L246F T263S F265I Q342K)
UDP-glycosyltransferase 76G1: B1 UDP-glycosyltransferase 76G1 with L246F, T263S, F265I, L284T, Q342K, F396V, E397Y, V407I
B9: UGT76G1var6: UGT76G1 variant, mutations Q266S_S357N_I373L (protein, UniProt Q6VAB4 1-458, looked up, variant Q266S S357N I373L)
UDP-glycosyltransferase 76G1: B1 UDP-glycosyltransferase 76G1 with A224E, Q266S, L284T, S357N, I373L, F396V, E397Y, V407I
B10: UGT76G1var95: UGT76G1 variant, mutations A33G_I295M_K303G_I335V_A385T (protein, UniProt Q6VAB4 1-458, looked up, variant A33G I295M K303G I335V A385T)
UDP-glycosyltransferase 76G1: B1 UDP-glycosyltransferase 76G1 with A33G, A224E, L284T, I295M, K303G, I335V, A385T, F396V, E397Y, V407I

Test: Directed evolution of UGT76G1, conversion of Rebaudioside D to Rebaudioside M (round 1)
Type: biochemical
Conditions: 0.5 mM Rebaudioside D, 2.5 mM UDP-Glucose, 100 μL fresh lysate, 30° C., pH 7.2
How it was run: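 UGT76G1 variants carrying 3-5 designed mutations were expressed in E. coli BL21(DE3) (pET30a+, 44 h at 20° C) and lysed. Lysate was reacted with 0.5 mM Reb D, 2.5 mM UDP-glucose, 3 mM MgCl2 in 50 mM phosphate pH 7.2 at 30° C; HPLC-CAD sampling at 2, 4, 7, 24 h gave conversion and initial rate.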

Molecule	Conversion Reb D to Reb M after 24 h (%)	initial rate (Reb M area/min)
B1	1.6%	3.8E+05 Reb M area/min
B2	1.6%	3.6E+05 Reb M area/min
B3	1.2%	2.1E+05 Reb M area/min
B4	1.6%	3.8E+05 Reb M area/min
B5	35.7%	2.1E+07 Reb M area/min
B6	34.5%	1.9E+07 Reb M area/min
B7	1.8%	4.5E+05 Reb M area/min
B8	1.2%	2.3E+05 Reb M area/min
B9	0.5%	1.8E+06 Reb M area/min
B10	−1.3%	−1.7E+05 Reb M area/min
